# Measurements reported in patent publication US20240117018A1.
# Experiments:
# Assay in all cases: cell-based or functional assay
# [1] = target: HIV-1 Env of pseudovirus 1012_11_TC21_3257 (HIV-1)
# [2] = target: HIV-1 Env of pseudovirus ZM249M.PL1 (HIV-1)
# [3] = target: HIV-1 Env of pseudovirus 1056_10_TA11_1826 (HIV-1)
# [4] = target: HIV-1 Env of pseudovirus 6041.v3.c23 (HIV-1)
# [5] = target: HIV-1 Env of pseudovirus Q259.d2.17 (HIV-1)
# [6] = target: HIV-1 Env of pseudovirus Ce1086_B2 (HIV-1)
# [7] = target: HIV-1 Env of pseudovirus RHPA4259.7 (HIV-1)
# [8] = target: HIV-1 Env of pseudovirus ZM214M.PL15 (HIV-1)
# [9] = target: HIV-1 Env of pseudovirus 249M B10 (HIV-1)
# [10] = target: HIV-1 Env of pseudovirus CNE20 (HIV-1)
# [11] = target: HIV-1 Env of pseudovirus 3103.v3.c10 (HIV-1)
# [12] = target: HIV-1 Env of pseudovirus Q461.e2 (HIV-1)
# [13] = target: HIV-1 Env of pseudovirus CNE19 (HIV-1)
# [14] = target: HIV-1 Env of pseudovirus CNE17 (HIV-1)
# [15] = target: HIV-1 Env of pseudovirus CNE58 (HIV-1)
# [16] = target: HIV-1 Env of pseudovirus REJO4541.67 (HIV-1)
# [17] = target: HIV-1 Env of pseudovirus Du156.12 (HIV-1)
# [18] = target: HIV-1 Env of pseudovirus 231965.c01 (HIV-1)
# [19] = target: HIV-1 Env of pseudovirus 7030102001E5(Rev-) (HIV-1)
# [20] = target: HIV-1 Env of pseudovirus Du172.17 (HIV-1)
# [21] = target: HIV-1 Env of pseudovirus Du422.1 (HIV-1)
# [22] = target: HIV-1 Env of pseudovirus CNE21 (HIV-1)
# [23] = target: HIV-1 Env of pseudovirus BJOX009000.02.4 (HIV-1)
# [24] = target: HIV-1 Env of pseudovirus SC422661.8 (HIV-1)
# [25] = target: HIV-1 Env of pseudovirus X2088_c9 (HIV-1)
# [26] = target: HIV-1 Env of pseudovirus ZM197M.PB7 (HIV-1)
# [27] = target: HIV-1 Env of pseudovirus 1006_11_C3_1601 (HIV-1)
# [28] = target: HIV-1 Env of pseudovirus HIV-0013095-2.11 (HIV-1)
# [29] = target: HIV-1 Env of pseudovirus T257-31 (HIV-1)
# [30] = target: HIV-1 Env of pseudovirus BF1266.431a (HIV-1)
# [31] = target: HIV-1 Env of pseudovirus Ce2060_G9 (HIV-1)
# [32] = target: HIV-1 Env of pseudovirus C3347.c11 (HIV-1)
# [33] = target: HIV-1 Env of pseudovirus 6952.v1.c20 (HIV-1)
# [34] = target: HIV-1 Env of pseudovirus T278-50 (HIV-1)
substance,measurement,setting,value
PGT128 (antibody),neutralization IC50,[1],0.011 µg/mL
same,neutralization IC80,[1],0.033 µg/mL
same,neutralization IC50,[2],39.7 µg/mL
same,neutralization IC80,[2],> 50 µg/mL
same,neutralization IC50,[3],< 1 ng/mL
same,neutralization IC80,[3],8 ng/mL
same,IC50 (Titer in TZM.bl cells),[4],> 50 µg/mL
same,IC80 (Titer in TZM.bl cells),[4],> 50 µg/mL
same,neutralization IC50,[5],> 50 µg/mL
same,neutralization IC80,[5],> 50 µg/mL
same,neutralization IC50,[6],> 50 µg/mL
same,neutralization IC80,[6],> 50 µg/mL
same,neutralization IC50,[7],0.026 µg/mL
same,neutralization IC80,[7],0.109 µg/mL
same,neutralization IC50,[8],1.5 µg/mL
same,neutralization IC80,[8],29.4 µg/mL
same,neutralization IC50,[9],7.87 µg/mL
same,neutralization IC80,[9],> 50 µg/mL
same,neutralization IC50,[10],1 ng/mL
same,neutralization IC80,[10],4 ng/mL
same,IC50 (Titer in TZM.bl cells),[11],0.014 µg/mL
same,IC80 (Titer in TZM.bl cells),[11],0.033 µg/mL
same,neutralization IC50,[12],> 50 µg/mL
same,neutralization IC80,[12],> 50 µg/mL
same,neutralization IC50,[13],> 50 µg/mL
same,neutralization IC80,[13],> 50 µg/mL
same,neutralization IC50,[14],0.432 µg/mL
same,neutralization IC80,[14],1.99 µg/mL
same,neutralization IC50,[15],13.8 µg/mL
same,neutralization IC80,[15],> 50 µg/mL
same,neutralization IC50,[16],> 50 µg/mL
same,neutralization IC80,[16],> 50 µg/mL
same,neutralization IC50,[17],0.017 µg/mL
same,neutralization IC80,[17],0.046 µg/mL
same,IC50 (Titer in TZM.bl cells),[18],> 50 µg/mL
same,IC80 (Titer in TZM.bl cells),[18],> 50 µg/mL
same,neutralization IC50,[19],7 ng/mL
same,neutralization IC80,[19],0.022 µg/mL
same,neutralization IC50,[20],0.028 µg/mL
same,neutralization IC80,[20],0.08 µg/mL
same,neutralization IC50,[21],0.039 µg/mL
same,neutralization IC80,[21],0.113 µg/mL
same,neutralization IC50,[22],0.01 µg/mL
same,neutralization IC80,[22],0.026 µg/mL
same,IC50 (Titer in TZM.bl cells),[23],< 1 ng/mL
same,IC80 (Titer in TZM.bl cells),[23],5 ng/mL
same,neutralization IC50,[24],1.08 µg/mL
same,neutralization IC80,[24],18.4 µg/mL
same,IC50 (Titer in TZM.bl cells),[25],> 50 µg/mL
same,IC80 (Titer in TZM.bl cells),[25],> 50 µg/mL
same,neutralization IC50,[26],> 50 µg/mL
same,neutralization IC80,[26],> 50 µg/mL
same,neutralization IC50,[27],0.011 µg/mL
same,neutralization IC80,[27],0.04 µg/mL
same,neutralization IC50,[28],> 50 µg/mL
same,neutralization IC80,[28],> 50 µg/mL
same,neutralization IC50,[29],> 50 µg/mL
same,neutralization IC80,[29],> 50 µg/mL
same,neutralization IC50,[30],> 50 µg/mL
same,neutralization IC80,[30],> 50 µg/mL
same,neutralization IC50,[31],> 50 µg/mL
same,neutralization IC80,[31],> 50 µg/mL
same,IC50 (Titer in TZM.bl cells),[32],1 ng/mL
same,IC80 (Titer in TZM.bl cells),[32],7 ng/mL
same,IC50 (Titer in TZM.bl cells),[33],> 50 µg/mL
same,IC80 (Titer in TZM.bl cells),[33],> 50 µg/mL
same,IC50 (Titer in TZM.bl cells),[34],0.031 µg/mL
same,IC80 (Titer in TZM.bl cells),[34],0.089 µg/mL
